Assay results as given in PMC8017934.
“And” between values parts separate entries of the source, which are not always exact repeats. Identical values can stand only once.

Columns and labels:
[1] = biological target: human 40S ribosomal subunit with the ybbR tag on uS19, Cy3-labelled (human (endogenous in HEK293T)) (UniProt P62841)
[2] = biological target: human 40S ribosomal subunit with the ybbR tag on RACK1, biotinylated or Cy5-labelled (human) (UniProt P63244)

| Substance | fraction of recruited 40S subunits with which NSP1 coassociated [1] | Kd [2] | fraction of IRES–40S complexes bound at least once by NSP1 (≥∼5 s) [2] | koff [2] |
| --- | --- | --- | --- | --- |
| SARS-CoV-2 NSP1 with an N-terminal ybbR tag, fluorescently labelled (from UniProt P0DTD1 1-180) (natural protein) | 57% and 60% |  |  |  |
| SARS-CoV-2 NSP1(KH164-165AA) with an N-terminal ybbR tag, Cy3-labelled (from UniProt P0DTD1 1-180) (natural protein) |  | > 350 nM | 9% | 0.14 s⁻¹ |
| Bat-Hp-CoV NSP1 with an N-terminal ybbR tag, Cy3-labelled (natural protein) |  | < 1 nM | 89% | < 0.002 s⁻¹ |
